# According to the RNAGym collection of RNA variant scans (doi:10.1021/acssynbio.7b00057):
# B1: Pistol ribozyme (parent)
# chain: GGGUCGUUGUUCCAUAAUCGCGUGGAUAUGGCACGCAAGUUUCUACCGGGCACCGUAAAUGUCCGACUGGAGCCGUUCGGGCGGCUAUAAACAGACCUCAGGCCCGAAGCGUGGCGGCACCUGCCGCCGGUGGUAAAAAAGAUCGGAAGAGCACACGUCU
# Variants of: B1
# Experiment: aptazyme ON/OFF ratio, guanine; higher = stronger switching; co-transcriptional cleavage with and without guanine
row,Variant,aptazyme ON/OFF ratio
1,U7G U8G U11C C12G C13A,1.33
2,U7G U8G U11C C12G C13U,1.33
3,U7G U8G U11C C12G C13G,1.23
4,U7G U8G U10A U11A C12G C13G,1.26
5,U7G U8G U10A U11A C12G C13A,1.22
6,U7G U8G U10A U11A C12G C13U,1.13
7,U7G U8G U10G C12G C13G,1.32
8,U7G U8G U10G C12G C13U,1.26
9,U7G U8G U10G C12G C13A,1.21
10,U7G U8G U10A U11G C12U C13A,1.23
11,U7G U8G U10A U11G C12U C13U,1.22
12,U7G U8G U10A U11G C12U C13G,1.36
13,U7G U8G U10G U11G C12A,1.23
14,U7G U8G U10G U11G C12U,1.36
15,U7G U8G U10G U11G C12G,1.26
16,U7G U8G G9U U11A C12U C13U,1.23
17,U7G U8G G9U U11A C12U C13G,1.28
18,U7G U8G G9U U11A C12U C13A,1.33
19,U7G U8G U10A U11A C13U,1.35
20,U7G U8G U10A U11A C13G,1.21
21,U7G U8G U10A U11A C13A,1.33
22,U7G U8G G9U U11G C12G C13U,1.22
23,U7G U8G G9U U11G C12G C13G,1.14
24,U7G U8G G9U U11G C12G C13A,1.05

row,Variant,aptazyme ON/OFF ratio
1,U7G U8G U10A C12G C13G,1.2
2,U7G U8G U10A C12G C13A,1.16
3,U7G U8G U10A C12G C13U,0.978
4,U7G U8G U11C,1.35
5,U7G U8G U11A,1.67
6,U7G U8G U10C U11C C12A,1.41
7,U7G U8G U10C U11C C12U,1.35
8,U7G U8G U10C U11C C12G,1.18
9,U7G U8G U10G U11A C12A C13U,1.23
10,U7G U8G U10G U11A C12A C13G,1.31
11,U7G U8G U10G U11A C12A C13A,1.17
12,U7G U8G U10C C12U C13U,1.39
13,U7G U8G U10C C12U C13A,1.47
14,U7G U8G U10C C12U C13G,1.42
15,U7G U8G U10C C12G,1.09
16,U7G U8G U10C C12A,1.49
17,U7G U8G U10C C12U,1.52
18,U7G U8G G9U U11C C13U,1.41
19,U7G U8G G9U U11C C13G,1.1
20,U7G U8G G9U U11C C13A,1.4
21,U7G U8G G9U U11G C12A C13A,1.1
22,U7G U8G G9U U11G C12A C13U,1.16
23,U7G U8G G9U U11G C12A C13G,1.12
24,U7G U8G U10C U11A C12A C13A,1.08

row,Variant,aptazyme ON/OFF ratio
1,U7G U8G U10C U11A C12A C13U,1.14
2,U7G U8G U10C U11A C12A C13G,1.12
3,U7G U8G U10A C13A,1.34
4,U7G U8G U10A C13G,1.29
5,U7G U8G U10A C13U,1.36
6,U7G U8G U10G U11G C12A C13U,1.33
7,U7G U8G U10G U11G C12A C13G,1.03
8,U7G U8G U10G U11G C12A C13A,1.25
9,U7G U8G G9U U10G U11A C13G,1.16
10,U7G U8G G9U U10G U11A C13A,1.13
11,U7G U8G G9U U10G U11A C13U,1.19
12,U7G U8G U10G C13A,1.45
13,U7G U8G U10G C13G,1.47
14,U7G U8G U10G C13U,1.39
15,U7G U8G U10G U11A C12U,1.36
16,U7G U8G U10G U11A C12G,1.43
17,U7G U8G U10G U11A C12A,1.18
18,U7G U8G G9U U10G U11G C12A C13U,1.06
19,U7G U8G G9U U10G U11G C12A C13A,1.04
20,U7G U8G G9U U10G U11G C12A C13G,1.1
21,U7G U8G U10C C13U,1.81
22,U7G U8G U10C C13A,1.33
23,U7G U8G U10C C13G,1.17
24,U7G U8G U10G U11A C12G C13U,1.47

row,Variant,aptazyme ON/OFF ratio
1,U7G U8G U10G U11A C12G C13A,1.28
2,U7G U8G U10G U11A C12G C13G,1.44
3,U7G U8G U10G C12U C13A,1
4,U7G U8G U10G C12U C13G,1.04
5,U7G U8G U10G C12U C13U,1.32
6,U7G U8G U10G U11C C13G,1.29
7,U7G U8G U10G U11C C13U,1.15
8,U7G U8G U10G U11C C13A,1.02
9,U7G U8G G9U U10G U11A C12U,1.27
10,U7G U8G G9U U10G U11A C12G,1.16
11,U7G U8G G9U U10G U11A C12A,1.13
12,U7G U8G U11A C12U C13G,1.36
13,U7G U8G U11A C12U C13A,1.56
14,U7G U8G U11A C12U C13U,1.15
15,U7G U8G U10A U11C C12G C13A,1.16
16,U7G U8G U10A U11C C12G C13U,1.29
17,U7G U8G U10A U11C C12G C13G,1.11
18,U7G U8G U10A C12A C13U,1.33
19,U7G U8G U10A C12A C13A,1.18
20,U7G U8G U10A C12A C13G,1.3
21,U7G U8G U10G U11G,1.39
22,U7G U8G U10G U11C,2.08
23,U7G U8G U10G U11A,1.66
24,U7G U8G U10C U11C C13G,1.07

row,Variant,aptazyme ON/OFF ratio
1,U7G U8G U10C U11C C13U,1.12
2,U7G U8G U10C U11C C13A,1.07
3,U7G U8G G9U U10G U11C C12G C13A,1.1
4,U7G U8G G9U U10G U11C C12G C13U,1.14
5,U7G U8G G9U U10G U11C C12G C13G,1.05
6,U7G U8G U10C U11C C12A C13U,1.22
7,U7G U8G U10C U11C C12A C13A,1.3
8,U7G U8G U10C U11C C12A C13G,1.23
9,U7G U8G U10A U11G C12G,1.2
10,U7G U8G U10A U11G C12U,1.38
11,U7G U8G U10A U11G C12A,1.16
12,U7G U8G U10G U11C C12A C13A,1.53
13,U7G U8G U10G U11C C12A C13G,1.3
14,U7G U8G U10G U11C C12A C13U,1.46
15,U7G U8G U10G U11G C12G C13U,1.31
16,U7G U8G U10G U11G C12G C13A,1.42
17,U7G U8G U10G U11G C12G C13G,1.18
18,U7G U8G G9U U10G U11G,1.81
19,U7G U8G G9U U10G U11A,1.4
20,U7G U8G G9U U10G U11C,1.1
21,U7G U8G U10C U11A C12G C13G,1.23
22,U7G U8G U10C U11A C12G C13A,1.17
23,U7G U8G U10C U11A C12G C13U,1.27
24,U7G U8G U10A U11G C13U,1.33

row,Variant,aptazyme ON/OFF ratio
1,U7G U8G U10A U11G C13A,1.18
2,U7G U8G U10A U11G C13G,1.18
3,U7G U8G U10C U11G C12G C13U,1.32
4,U7G U8G U10C U11G C12G C13A,1.19
5,U7G U8G U10C U11G C12G C13G,1.41
6,U7G U8G G9U U11G C12G,1.41
7,U7G U8G G9U U11G C12A,1.32
8,U7G U8G G9U U11G C12U,1.45
9,U7G U8G U10G U11G C13G,1.13
10,U7G U8G U10G U11G C13A,1.62
11,U7G U8G U10G U11G C13U,1.37
12,U7G U8G U10C C12A C13U,1.28
13,U7G U8G U10C C12A C13G,1.27
14,U7G U8G U10C C12A C13A,1.45
15,U7G U8G G9U U10G U11A C12G C13U,1.14
16,U7G U8G G9U U10G U11A C12G C13G,1.15
17,U7G U8G G9U U10G U11A C12G C13A,1.08
18,U7G U8G G9U U10G U11G C13U,1.11
19,U7G U8G G9U U10G U11G C13A,1.06
20,U7G U8G G9U U10G U11G C13G,1.08
21,U7G U8G U11C C12A C13G,1.15
22,U7G U8G U11C C12A C13U,1.26
23,U7G U8G U11C C12A C13A,1.42
24,U7G U8G U10A U11C C13G,1.25

row,Variant,aptazyme ON/OFF ratio
1,U7G U8G U10A U11C C13A,1.27
2,U7G U8G U10A U11C C13U,1.08
3,U7G U8G U10C U11G C12A C13A,1.15
4,U7G U8G U10C U11G C12A C13G,1.16
5,U7G U8G U10C U11G C12A C13U,1.22
6,U7G U8G U10C,1.38
7,U7G U8G U10G,1.37
8,U7G U8G U10A,2.24
9,U7G U8G G9U U10G C12U,1.13
10,U7G U8G G9U U10G C12G,1.33
11,U7G U8G G9U U10G C12A,1.44
12,U7G U8G U10A U11A C12A,1.13
13,U7G U8G U10A U11A C12G,1.22
14,U7G U8G U10A U11A C12U,1.25
15,U7G U8G U10A U11C C12A C13G,1.23
16,U7G U8G U10A U11C C12A C13A,1.34
17,U7G U8G U10A U11C C12A C13U,1.47
18,U7G U8G G9U U11C C12G,1.43
19,U7G U8G G9U U11C C12U,1.65
20,U7G U8G G9U U11C C12A,1.8
21,U7G U8G G9U U11C C12U C13A,1.35
22,U7G U8G G9U U11C C12U C13G,1.38
23,U7G U8G G9U U11C C12U C13U,1.33
